Measurements reported in patent US20220378912A1 (Novartis, published 2022).

T1: recombinant human P-selectin (human, UniProt P16109 42-771, limits assumed)
T1 construct: Coated on ELISA plates
T1 sequence (looked up): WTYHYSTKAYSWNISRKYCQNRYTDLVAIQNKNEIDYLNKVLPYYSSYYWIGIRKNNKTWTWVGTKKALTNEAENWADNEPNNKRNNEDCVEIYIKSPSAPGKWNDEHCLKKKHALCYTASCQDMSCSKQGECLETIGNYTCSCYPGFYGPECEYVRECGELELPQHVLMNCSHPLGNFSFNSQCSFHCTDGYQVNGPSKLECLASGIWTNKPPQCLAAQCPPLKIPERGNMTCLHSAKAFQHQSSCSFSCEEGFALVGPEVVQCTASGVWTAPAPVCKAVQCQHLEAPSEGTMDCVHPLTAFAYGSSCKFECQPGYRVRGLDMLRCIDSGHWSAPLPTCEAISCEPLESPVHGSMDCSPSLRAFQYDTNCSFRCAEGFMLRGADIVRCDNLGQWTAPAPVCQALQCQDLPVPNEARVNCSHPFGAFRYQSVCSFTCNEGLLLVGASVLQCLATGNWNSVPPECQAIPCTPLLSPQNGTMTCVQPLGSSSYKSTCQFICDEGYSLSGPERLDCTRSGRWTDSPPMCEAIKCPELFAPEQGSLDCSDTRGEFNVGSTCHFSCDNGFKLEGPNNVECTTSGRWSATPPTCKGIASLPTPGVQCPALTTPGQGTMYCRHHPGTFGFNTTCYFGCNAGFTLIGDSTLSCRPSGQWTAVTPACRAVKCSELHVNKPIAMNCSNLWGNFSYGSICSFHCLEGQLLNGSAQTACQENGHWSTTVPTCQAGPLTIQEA

T2: P-selectin fused to immunoglobulin (Psel-Ig) (UniProt P16109 42-771, limits assumed)
T2 construct: also called spiked P-selectin; not shown: immunoglobulin part of the fusion
T2 sequence (looked up): T1 sequence (looked up)

B1: D-succinimide of crizanlizumab (antibody, human IgG2, kappa)
heavy: QVQLVQSGAEVKKPGASVKVSCKVSGYTFTSYDINWVRQAPGKGLEWMGWIYPGDGSIKYNEKFKGRVTMTVDKSTDTAYMELSSLRSEDTAVYYCARRGEYGNYEGAMDYWGQGTLVTVSSASTKGPSVFPLAPCSRSTSESTAALGCLVKDYFPEPVTVSWNSGALTSGVHTFPAVLQSSGLYSLSSVVTVTSSNFGTQTYTCNVDHKPSNTKVDKTVERKCCVECPPCPAPPVAGPSVFLFPPKPKDTLMISRTPEVTCVVVDVSHEDPEVQFNWYVDGMEVHNAKTKPREEQFNSTFRVVSVLTVVHQDWLNGKEYKCAVSNKGLPAPIEKTISKTKGQPREPQVYTLPPSREEMTKNQVSLTCLVKGFYPSDIAVEWESNGQPENNYKTTPPMLDSDGSFFLYSKLTVDKSRWQQGNVFSCSVMHEALHNHYTQKSLSLSPGK
light 1: DIQMTQSPSSLSASVGDRVTITCKASQSVDYDGHSYMNWYQQKPGKAPKLLIYAASNLESGVPSRFSGSGSGTDFTLTISSLQPEDFATYYCQQSDENPLTFGGGTKVEIKRTVAAPSVFIFPPSDEQLKSGTASVVCLLNNFYPREAKVQWKVDNALQSGNSQESVTEQDSKDSTYSLSSTLTLSKADYEKHKVYACEVTHQGLSSPVTKSFNRGEC
light 2: B1 light 1
modifications: succinimide at position 32
notes: One light chain with succinimide, the other with aspartic acid at position 32; also called D-Succi-crizanlizumab
B2: isoD-succinimide of crizanlizumab (antibody, human IgG2, kappa)
heavy: B1 heavy
light 1: B1 light 1
light 2: B1 light 1
modifications: isoaspartic acid at position 32; succinimide at position 32
notes: One light chain with succinimide, the other with isoaspartic acid at position 32; also called isoD-Succi-crizanlizumab
B3: hetero-iso-crizanlizumab (antibody, human IgG2, kappa)
heavy: B1 heavy
light 1: B1 light 1
light 2: B1 light 1
modifications: isoaspartic acid at position 32
notes: Aspartic acid at position 32 of only one light chain replaced by isoaspartic acid; also called iso-crizanlizumab (one light chain)
B4: SEG101 (crizanlizumab), humanised monoclonal antibody against human P-selectin (antibody, human IgG2, kappa, V domains shown)
VH: QVQLVQSGAEVKKPGASVKVSCKVSGYTFTSYDINWVRQAPGKGLEWMGWIYPGDGSIKYNEKFKGRVTMTVDKSTDTAYMELSSLRSEDTAVYYCARRGEYGNYEGAMDYWGQGTLVTVSS
VL: DIQMTQSPSSLSASVGDRVTITCKASQSVDYDGHSYMNWYQQKPGKAPKLLIYAASNLESGVPSRFSGSGSGTDFTLTISSLQPEDFATYYCQQSDENPLTFGGGTKVEIKR
notes: also called SelG1; main peak
B5: homo-iso-crizanlizumab (antibody, human IgG2, kappa, V domains shown)
VH: B4 VH
VL: B4 VL
modifications: isoaspartic acid at position 32
notes: Aspartic acid at position 32 of both light chains replaced by isoaspartic acid; also called iso-crizanlizumab (both light chains)

What follows are binders tested against T1, recombinant human P-selectin (assay: P-selectin binding assay of Example 2 (ELISA), relative %; CZE peak comprising the variant).
Experimental: In the ELISA, potency and identity of SEG101 samples are measured based on their ability to bind recombinant human P-selectin. ELISA plates are coated with recombinant human P-selectin, and graded amounts of SEG101 are added. Bound SEG101 is quantified using an anti-human IgG antibody coupled to horseradish peroxidase followed by the addition of a colorimetric substrate. Results of the colorimetric reaction are measured by light absorption. The potency of a SEG101 test sample is quantified by comparing its ability to bind P-selectin to that of a SEG101 reference standard. The samples and the standard are normalized on the basis of protein content. Relative potency is calculated using a parallel line assay according to the European Pharmacopoeia. The final result is expressed as relative potency (in percent) of a sample compared to the reference standard.

P-selectin binding affinity [%]	Binder
78%	B1
63%	B2
105%	B3
90%	B4
119%	B5

Each binder was assayed against T2, P-selectin fused to immunoglobulin … (assay: SPR competition: dilution series of crizanlizumab and any variants thereof inhibiting Psel-Ig binding to immobilised biotinylated GSP-6 (standard inhibition curve)).
Experimental: An SPR-based method was used to measure ex vivo % P-selectin inhibition of crizanlizumab in human serum samples from human donors treated with crizanlizumab. This PD assay measured the ability of crizanlizumab and it variants in serum to block P-selectin (antigen; ligand) binding to PSGL-1 (ligand receptor). Blockage by crizanlizumab and any variants thereof was measured as % inhibition of spiked P-selectin fused to immunoglobulin (Psel-Ig) binding to glycosulfopeptide 6 (GSP-6), a peptide analogue mimicking the PSGL-1 binding domain. For example, streptavidin was immobilized on 2 channels (FC-2 and FC-3) of the used biosensor chip using standard amine coupling followed by injection of biotinylated GSP-6 to immobilize the peptide for analysis. A reference channel (FC-1) was prepared by biotin-blocking streptavidin. The pre-treatment samples established the maximum binding for each subject and this was used as the basis for calculating % inhibition using the post-dose serum samples from the subject at various time points. Quantified crizanlizumab and any variants thereof in a series of dilutions were used to generate standard inhibitition curve, showing an IC₅₀ value of 5.2 μg/mL for crizanlizumab under all conditions.

IC50	Binder
5.2 µg/mL	B4
